{
  "source": "paper PMC12439769",
  "about": "“Case of Nisin Oral Ingestion and its LC-MS/MS Detection in Human Urine Over Time: A Case Report” (Archives of clinical and medical case reports, 2025)",
  "key": {"[1]": {"system": "gastrointestinal epithelial and vascular endothelial cells", "details": "in vitro; ref 35 (Dreyer et al.); cited from earlier work", "experimental": "(§1) Nisin mediates its action in part by interactions with phospholipid bilayers on cellular membranes. Prior pharmacokinetic and pharmacodynamic information indicate that nisin can be absorbed via epithelial tissues. Nisin can be absorbed through the vaginal epithelium into the circulation following intravaginal administration in rabbits. Maximum levels of nisin were detected in blood samples after 1 h of treatment. […] Further, Dreyer et al. reported the migration of nisin a ..."}, "[2]": {"details": "cited from earlier work", "experimental": "as §1"}, "[3]": {"test": "Tolerability of oral ingestion of nisin", "assay_type": "in vivo, human", "details": "20 grams in total, two doses of 10 grams/150 ml of water at noon and 6 pm; one healthy person", "experimental": "(§2) Nisin ZP (Handary S.A; Brussels, Belgium) was ingested by a healthy volunteer. […] Sterile urine was then collected at 4 pm (Sample 1) and 8 pm (Sample 2) on the first day of ingestion, and at 6 am (Sample 3), 8 am (Sample 4), 3:30 pm (Sample 5), and 9 pm (Sample 6) the next day. Urine samples were frozen at −80°C immediately upon collection (Table 1)."}, "[4]": {"test": "LC-MS/MS (PRM) detection of nisin in human urine after oral ingestion", "assay_type": "in vivo", "experimental": "as §2\nSix urine samples, including both standard and nisin-spiked samples, were thawed/prepared then centrifuged at 4000×g to pellet large solute materials/proteins. The supernatant from each sample was then filtered using a 10 kDa MWCO Amicon® Ultra Centrifugal Filter to further remove larger protein molecules. The filtered urine was lyophilized under stringent conditions (−50 °C and 0.1 Torr) for 48 hours to ensure complete dryness. The lyophilized cake was resuspended in 0.1% Trifluoroacetic Acid (TFA) for sample homogenization. A subsequent centrifugation step at 12000×g for 5 minutes allowed for the separation of any remaining particulate matter, with the supernatant being carefully transferred into a clean tube. The supernatant underwent desalting using C18 Stage Tips, which were prepared by equilibration in 1% TFA and 50% Acetonitrile (ACN), followed by a washing solution of 5% ACN and 0.1% TFA, and an elution in 40% ACN with 0.1% TFA. The peptides eluted were vacuum dried and then resuspended in 5% Formic Acid (FA).\nNisin peptide abundance was measured using liquid chromatography coupled to mass spectrometry (LC-MS/MS). After reconstitution in formic acid, the samples were fractionated online by C18 reversed phase chromatography using a Dionex U3000 HPLC to deliver an increasing gradient of acetonitrile. Peptides were eluted and electrosprayed directly in a Thermofisher Fusion Lumos mass spectrometer. Data were acquired using a parallel reaction monitoring strategy in which the +5 precursor ion of full-length nisin was analyzed by MS/MS [51]. The precursor and fragment ion masses for +5 charge state of nisin utilized for Parallel Reaction Monitoring are shown in Table 2. Extracted ion chromatograms were generated for each fragment ion using the Skyline software package. The area under the curve for each fragment ion was summed to calculate an estimate of nisin abundance."}, "[5]": {"test": "Western blotting of nisin in urine samples after oral ingestion", "assay_type": "in vivo, human", "experimental": "as §2\nThe urine samples were filtered using a 10 kDa MWCO Amicon® ultra centrifugal filter (Cat No: UFC201024, Millipore). The filtrate was used to analyze nisin, while the top retained fraction was used to check for potential nisin-binding proteins that might bind to and shift nisin to a higher molecular weight.\nWestern blot analyses were performed on the filtrate and top fractions from the urine samples to detect nisin and nisin binding proteins, respectively. Samples were normalized by equal protein concentration (125 μg) and then mixed with 4X Laemmli sample buffer (Cat. No. 1610747, Bio-Rad) containing β-ME (3:1). The proteins were resolved by 16% Tricine SDS-PAGE (Invitrogen, Cat No. EC6695) then transferred to Immobilon-P membranes. The blots were probed with a custom polyclonal affinity-purified rabbit nisin antibody (proprietary to Kapila lab). The antibody against nisin was produced by co-immunizing rabbits with four short nisin peptide sequences (Pacific Immunology, Ramona, CA). Blots were incubated with horseradish peroxidase-conjugated anti-rabbit antibody (SC-2004, Santa Cruz Biotechnology) and then developed with the ECL-plus detection system (Thermo Fisher Scientific)."}, "[6]": {"details": "oral ingestion, encapsulated nisin and nisin powder groups, at 24, 48 and 72 hours; mass spectrometry; cited from earlier work", "excerpt": "Like other reports of nisin detection with LC-MS/MS, this project employed similar methods to successfully detect nisin and its fragments in urine samples [44–49]. The ongoing clinical trial (ClinicalTrials.gov; NCT06097468) of nisin in oral cancer patients and studies with larger sample sizes will be helpful to furthe ..."}, "[7]": {"details": "rabbits, intravaginal administration"}},
  "note": "No end group written: not given here.",
  "data": [
    {"substance": "Nisin ZP: Natural bacteriocin made by Lactococcus lactis, food preservative; Nisin ZP from Handary S.A, Brussels, Belgium (ITSISLCTPGCKTGALMGCNMKTATCNCSIHVSK; also: lantibiotic nisin-Z: thioether rings and dehydro residues not placed; UniProt P29559 24-57, looked up)", "values": [
      {"measurement": "Migration across gastrointestinal epithelial and vascular endothelial cells", "setting": "[1]", "result": "migration of nisin across gastrointestinal epithelial and vascular endothelial cells"},
      {"measurement": "Stability in the harsh conditions of the gastric environment", "setting": "[2]", "result": "partially stable"},
      {"measurement": "Time at which blood levels declined to baseline", "setting": "[2]; [7]", "result": 12, "unit": "h"},
      {"measurement": "Time of maximum levels of nisin in blood samples", "setting": "[2]; [7]", "result": 1, "unit": "h"},
      {"measurement": "Tolerability of oral ingestion", "setting": "[3]", "result": "well tolerated without any adverse events"},
      {"measurement": "Time of maximal nisin levels detected in urine", "setting": "[4]; after first oral 10 g dose, LC-MS/MS, earliest sample collected at 4 h, n = 1 subject", "result": 4, "unit": "h"},
      {"measurement": "Nisin detection in urine samples 1–4 by LC-MS/MS", "setting": "[4]; one healthy person, oral 2 x 10 g/150 ml water at noon and 6 pm, urine 4, 8, 18, 20 h after first ingestion, 10 kDa MWCO filtrate, lyophilized, C18 desalted, PRM of +5 precursor, summed fragment AUC", "result": "detected"},
      {"measurement": "Time window of nisin detection in urine after the first ingestion", "setting": "[4]; oral 10 g/150 ml at noon, second 10 g at 6 pm, LC-MS/MS, n = 1 subject, no urine collected before 4 h", "result": "4 to 20", "unit": "h"},
      {"measurement": "Nisin detection in urine samples 5–6 by LC-MS/MS", "setting": "[4]; same subject and regimen, urine 27.5 and 33 h after first ingestion (21.5 and 27 h after second), PRM of +5 precursor", "result": "not"},
      {"measurement": "Time of nisin detection in urine after the second ingestion", "setting": "[4]; second oral 10 g/150 ml dose at 6 pm, LC-MS/MS, n = 1 subject", "result": "up to 14 hours"},
      {"measurement": "Nisin detection in urine samples 2 through 6 by immunoblotting", "setting": "[5]; <10 kDa filtrate, urine 8–33 h after first ingestion, anti-nisin rabbit polyclonal antibody", "result": "did not detect"},
      {"measurement": "Nisin detection at approximately 3.3 kDa in urine sample 1 by immunoblotting", "setting": "[5]; <10 kDa filtrate, urine 4 h after first ingestion, anti-nisin rabbit polyclonal antibody, 16% Tricine SDS-PAGE", "result": "detected"},
      {"measurement": "High molecular weight nisin-positive band at approximately 40 kDa in urine sample 1", "setting": "[5]; >10 kDa retained fraction, urine 4 h after first ingestion, suggests a potential nisin-binding protein", "result": "nisin-positive band"},
      {"measurement": "Integrity of nisin passing through the porcine gastrointestinal tract", "setting": "[6]", "result": "remains intact"}
    ]}
  ]
}
